In US20190134153A1, “IMMUNOMODULATORY EFFECT OF INHALED KINASE INHIBITOR PEPTIDES IN LUNG” (MOERAE MATRIX, INC., priority 2017, published 2019):

How the values were obtained:
Assay in all cases: Kinase Profiling Assay
Format in all cases: biochemical
Details in all cases: 100 μM
[1] = target: Arg(h) (Homo sapiens, UniProt P42684)
[2] = target: T1, LKB1(h) (Homo sapiens, UniProt Q15831)
T1 sequence (Q15831 1-433): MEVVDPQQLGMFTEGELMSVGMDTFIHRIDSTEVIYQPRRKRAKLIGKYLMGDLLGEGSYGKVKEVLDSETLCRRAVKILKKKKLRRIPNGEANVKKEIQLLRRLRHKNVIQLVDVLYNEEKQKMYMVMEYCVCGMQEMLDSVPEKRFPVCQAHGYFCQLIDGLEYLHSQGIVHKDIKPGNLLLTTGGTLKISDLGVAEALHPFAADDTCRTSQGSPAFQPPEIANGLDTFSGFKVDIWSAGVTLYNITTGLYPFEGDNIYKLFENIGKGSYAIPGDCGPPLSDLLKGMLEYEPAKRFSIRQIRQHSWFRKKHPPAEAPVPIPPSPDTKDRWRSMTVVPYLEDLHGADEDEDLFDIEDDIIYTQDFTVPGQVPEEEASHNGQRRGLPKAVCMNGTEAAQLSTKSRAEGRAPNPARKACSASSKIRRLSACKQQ
T1 sequence (Q7RTN6 1-431 partner): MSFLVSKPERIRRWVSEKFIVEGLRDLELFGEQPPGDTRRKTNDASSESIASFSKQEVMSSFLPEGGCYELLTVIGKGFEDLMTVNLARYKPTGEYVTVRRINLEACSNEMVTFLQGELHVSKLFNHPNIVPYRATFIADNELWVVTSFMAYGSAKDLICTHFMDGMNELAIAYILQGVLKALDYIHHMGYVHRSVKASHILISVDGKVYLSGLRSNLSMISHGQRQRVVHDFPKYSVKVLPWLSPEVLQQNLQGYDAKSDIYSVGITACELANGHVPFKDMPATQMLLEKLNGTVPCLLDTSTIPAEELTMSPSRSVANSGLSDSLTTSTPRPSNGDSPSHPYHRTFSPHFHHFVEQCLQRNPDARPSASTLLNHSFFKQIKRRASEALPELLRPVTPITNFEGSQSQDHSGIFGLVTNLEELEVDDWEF
T1 sequence (Q9Y376 1-341 partner): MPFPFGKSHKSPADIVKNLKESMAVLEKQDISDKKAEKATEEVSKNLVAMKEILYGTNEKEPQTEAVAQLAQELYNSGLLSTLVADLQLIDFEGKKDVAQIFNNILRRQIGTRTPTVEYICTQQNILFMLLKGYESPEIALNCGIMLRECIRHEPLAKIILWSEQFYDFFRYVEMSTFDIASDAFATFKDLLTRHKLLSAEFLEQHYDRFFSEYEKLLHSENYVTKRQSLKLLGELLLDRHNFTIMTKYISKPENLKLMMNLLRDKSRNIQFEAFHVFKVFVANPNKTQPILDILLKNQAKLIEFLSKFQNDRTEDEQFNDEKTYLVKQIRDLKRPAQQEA

[3] = target: MAPKAP-K2(h) (Homo sapiens, UniProt P49137)
Sequence of MAPKAP-K2(h) (P49137 whole entry): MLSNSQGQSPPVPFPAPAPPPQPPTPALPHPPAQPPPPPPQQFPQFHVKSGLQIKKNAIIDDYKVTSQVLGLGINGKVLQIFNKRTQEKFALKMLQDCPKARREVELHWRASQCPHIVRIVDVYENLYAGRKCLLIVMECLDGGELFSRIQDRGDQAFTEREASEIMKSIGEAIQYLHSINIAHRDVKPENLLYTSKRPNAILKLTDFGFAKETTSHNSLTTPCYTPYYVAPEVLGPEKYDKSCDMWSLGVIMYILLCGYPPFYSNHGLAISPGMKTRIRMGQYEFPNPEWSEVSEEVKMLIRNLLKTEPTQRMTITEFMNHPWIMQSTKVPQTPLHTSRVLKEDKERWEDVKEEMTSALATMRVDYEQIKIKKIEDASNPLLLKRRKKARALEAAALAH

[4] = target: T2, MKK6(h) (Homo sapiens, UniProt P52564)
T2 sequence (P52564 1-334): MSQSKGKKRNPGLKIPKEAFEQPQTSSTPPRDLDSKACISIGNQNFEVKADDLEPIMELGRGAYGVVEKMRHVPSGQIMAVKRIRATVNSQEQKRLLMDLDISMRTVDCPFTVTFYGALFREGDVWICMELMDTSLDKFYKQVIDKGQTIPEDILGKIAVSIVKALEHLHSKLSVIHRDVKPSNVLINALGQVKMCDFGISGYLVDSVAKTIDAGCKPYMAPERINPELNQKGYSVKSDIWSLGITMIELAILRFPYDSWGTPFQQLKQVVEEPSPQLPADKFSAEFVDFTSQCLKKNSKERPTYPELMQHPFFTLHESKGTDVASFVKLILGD

[5] = target: MSK1(h) (Homo sapiens, UniProt O75582)
Sequence of MSK1(h) (O75582 whole entry): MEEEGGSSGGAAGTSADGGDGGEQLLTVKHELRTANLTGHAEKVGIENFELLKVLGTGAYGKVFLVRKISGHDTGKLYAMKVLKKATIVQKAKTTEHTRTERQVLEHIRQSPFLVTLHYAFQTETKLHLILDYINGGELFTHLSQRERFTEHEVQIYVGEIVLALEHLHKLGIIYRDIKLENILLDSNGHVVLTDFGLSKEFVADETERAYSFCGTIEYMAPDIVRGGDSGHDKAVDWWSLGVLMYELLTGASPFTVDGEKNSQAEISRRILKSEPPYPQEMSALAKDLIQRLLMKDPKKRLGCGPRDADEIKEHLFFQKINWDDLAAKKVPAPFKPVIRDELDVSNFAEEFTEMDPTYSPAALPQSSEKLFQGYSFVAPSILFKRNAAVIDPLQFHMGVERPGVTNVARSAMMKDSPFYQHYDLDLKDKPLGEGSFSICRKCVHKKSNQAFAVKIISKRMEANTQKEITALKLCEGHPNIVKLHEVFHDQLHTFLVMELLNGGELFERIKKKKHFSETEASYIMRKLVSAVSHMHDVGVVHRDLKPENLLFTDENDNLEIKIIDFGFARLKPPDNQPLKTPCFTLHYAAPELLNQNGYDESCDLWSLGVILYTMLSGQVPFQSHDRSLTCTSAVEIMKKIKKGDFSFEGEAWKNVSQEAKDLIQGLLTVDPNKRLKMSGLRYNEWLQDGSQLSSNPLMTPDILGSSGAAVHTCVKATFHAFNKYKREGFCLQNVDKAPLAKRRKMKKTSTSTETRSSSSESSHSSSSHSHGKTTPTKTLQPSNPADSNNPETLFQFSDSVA

[6] = target: PAK5(h) (Homo sapiens, UniProt Q9P286)
Sequence of PAK5(h) (Q9P286 whole entry): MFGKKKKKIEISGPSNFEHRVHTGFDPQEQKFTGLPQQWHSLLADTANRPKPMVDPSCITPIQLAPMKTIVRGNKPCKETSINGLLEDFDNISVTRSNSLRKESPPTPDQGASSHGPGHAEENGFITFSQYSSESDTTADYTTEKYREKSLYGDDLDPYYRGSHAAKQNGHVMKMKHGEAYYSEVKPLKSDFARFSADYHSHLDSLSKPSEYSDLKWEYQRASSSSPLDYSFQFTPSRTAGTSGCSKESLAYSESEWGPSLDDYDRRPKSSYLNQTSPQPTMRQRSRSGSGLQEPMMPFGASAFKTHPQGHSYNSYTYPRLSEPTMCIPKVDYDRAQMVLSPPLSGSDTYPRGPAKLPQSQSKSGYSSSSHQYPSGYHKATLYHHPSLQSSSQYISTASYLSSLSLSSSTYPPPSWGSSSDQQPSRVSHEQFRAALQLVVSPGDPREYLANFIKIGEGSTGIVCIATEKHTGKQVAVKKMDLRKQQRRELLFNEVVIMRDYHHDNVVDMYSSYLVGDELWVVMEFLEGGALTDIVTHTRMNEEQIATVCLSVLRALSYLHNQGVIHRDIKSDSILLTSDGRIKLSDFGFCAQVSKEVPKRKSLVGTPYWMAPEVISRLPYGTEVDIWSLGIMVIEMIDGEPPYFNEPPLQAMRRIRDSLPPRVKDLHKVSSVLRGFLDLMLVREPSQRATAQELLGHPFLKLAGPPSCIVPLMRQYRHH

[7] = target: PKBα(h) (Homo sapiens, UniProt P31749)
[8] = target: PKCβII(h) (Homo sapiens, UniProt P05771)
Sequence of PKCβII(h) (P05771 1-673 isoform P05771-2): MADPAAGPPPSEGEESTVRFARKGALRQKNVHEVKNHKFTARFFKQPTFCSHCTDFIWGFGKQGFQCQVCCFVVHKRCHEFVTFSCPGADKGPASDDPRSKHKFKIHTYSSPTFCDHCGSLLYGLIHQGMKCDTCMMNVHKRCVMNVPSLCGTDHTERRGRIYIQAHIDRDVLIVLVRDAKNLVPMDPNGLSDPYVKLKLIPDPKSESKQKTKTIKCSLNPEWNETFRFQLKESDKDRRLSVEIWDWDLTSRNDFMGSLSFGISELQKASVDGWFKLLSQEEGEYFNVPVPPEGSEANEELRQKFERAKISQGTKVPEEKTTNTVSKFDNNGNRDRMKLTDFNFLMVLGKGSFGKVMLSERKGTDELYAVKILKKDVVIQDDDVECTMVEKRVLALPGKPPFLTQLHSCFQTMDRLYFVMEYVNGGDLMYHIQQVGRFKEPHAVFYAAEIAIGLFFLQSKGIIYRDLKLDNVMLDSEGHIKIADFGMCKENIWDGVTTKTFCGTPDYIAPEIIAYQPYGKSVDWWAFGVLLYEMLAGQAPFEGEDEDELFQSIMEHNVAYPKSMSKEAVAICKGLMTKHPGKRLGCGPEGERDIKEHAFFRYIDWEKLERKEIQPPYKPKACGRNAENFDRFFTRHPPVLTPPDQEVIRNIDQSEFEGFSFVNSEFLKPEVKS

[9] = target: T3, PKCι(h) (Homo sapiens, UniProt P41743)
T3 sequence (P41743 1-596): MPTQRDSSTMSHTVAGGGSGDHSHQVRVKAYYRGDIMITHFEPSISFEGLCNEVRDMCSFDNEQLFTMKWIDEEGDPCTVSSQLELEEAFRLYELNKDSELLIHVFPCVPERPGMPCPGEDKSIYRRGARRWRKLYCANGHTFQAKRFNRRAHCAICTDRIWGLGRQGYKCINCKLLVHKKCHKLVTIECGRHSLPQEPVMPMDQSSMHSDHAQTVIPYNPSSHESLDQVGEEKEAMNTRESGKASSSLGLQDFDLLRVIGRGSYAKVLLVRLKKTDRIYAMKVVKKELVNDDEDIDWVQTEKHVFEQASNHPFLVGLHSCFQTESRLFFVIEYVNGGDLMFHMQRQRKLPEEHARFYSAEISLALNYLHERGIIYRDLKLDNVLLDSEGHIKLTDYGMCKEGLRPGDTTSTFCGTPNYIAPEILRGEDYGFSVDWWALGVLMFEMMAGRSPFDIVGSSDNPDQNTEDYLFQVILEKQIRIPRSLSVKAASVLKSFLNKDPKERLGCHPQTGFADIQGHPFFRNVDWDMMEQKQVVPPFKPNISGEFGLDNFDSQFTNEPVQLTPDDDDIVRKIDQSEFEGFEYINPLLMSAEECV

[10] = target: PTK5(h) (Homo sapiens, UniProt P42685)
Sequence of PTK5(h) (P42685 whole entry): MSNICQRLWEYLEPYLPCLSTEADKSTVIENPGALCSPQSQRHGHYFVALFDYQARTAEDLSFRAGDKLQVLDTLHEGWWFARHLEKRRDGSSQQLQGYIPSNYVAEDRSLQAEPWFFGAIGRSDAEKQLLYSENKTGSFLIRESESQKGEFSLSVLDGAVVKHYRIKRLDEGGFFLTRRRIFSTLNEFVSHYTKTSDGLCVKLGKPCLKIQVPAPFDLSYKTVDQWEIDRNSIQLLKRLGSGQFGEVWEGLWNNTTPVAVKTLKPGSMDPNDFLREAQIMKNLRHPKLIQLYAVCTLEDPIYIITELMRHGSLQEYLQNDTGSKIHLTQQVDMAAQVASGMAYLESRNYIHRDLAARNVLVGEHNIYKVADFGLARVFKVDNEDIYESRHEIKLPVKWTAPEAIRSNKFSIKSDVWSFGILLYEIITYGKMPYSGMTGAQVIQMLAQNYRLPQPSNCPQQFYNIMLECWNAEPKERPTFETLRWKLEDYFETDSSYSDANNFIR

[11] = target: SIK(h) (Homo sapiens, UniProt P57059)
[12] = target: SRPK1(h) (Homo sapiens, UniProt Q96SB4)
Sequence of SRPK1(h) (Q96SB4 whole entry): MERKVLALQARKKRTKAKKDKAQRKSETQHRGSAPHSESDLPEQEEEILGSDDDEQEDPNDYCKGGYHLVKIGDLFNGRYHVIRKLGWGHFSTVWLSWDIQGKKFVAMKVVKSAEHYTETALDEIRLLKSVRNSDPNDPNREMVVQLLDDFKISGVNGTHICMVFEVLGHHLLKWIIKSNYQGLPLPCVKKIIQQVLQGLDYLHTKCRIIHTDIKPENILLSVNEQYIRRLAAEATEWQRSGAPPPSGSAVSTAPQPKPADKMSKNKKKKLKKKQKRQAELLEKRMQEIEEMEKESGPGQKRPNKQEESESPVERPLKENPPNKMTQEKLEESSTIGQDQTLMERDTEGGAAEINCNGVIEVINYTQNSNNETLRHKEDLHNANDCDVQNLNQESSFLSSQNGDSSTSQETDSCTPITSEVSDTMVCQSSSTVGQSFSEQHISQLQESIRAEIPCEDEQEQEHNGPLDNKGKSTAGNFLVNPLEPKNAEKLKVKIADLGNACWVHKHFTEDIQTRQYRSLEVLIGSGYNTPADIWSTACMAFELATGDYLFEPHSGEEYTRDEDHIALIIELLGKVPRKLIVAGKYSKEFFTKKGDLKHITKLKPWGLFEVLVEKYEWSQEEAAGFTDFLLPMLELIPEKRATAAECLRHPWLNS

[13] = target: TrkB(h) (Homo sapiens, UniProt Q16620)

Sequence of Arg(h) (P42684 whole entry): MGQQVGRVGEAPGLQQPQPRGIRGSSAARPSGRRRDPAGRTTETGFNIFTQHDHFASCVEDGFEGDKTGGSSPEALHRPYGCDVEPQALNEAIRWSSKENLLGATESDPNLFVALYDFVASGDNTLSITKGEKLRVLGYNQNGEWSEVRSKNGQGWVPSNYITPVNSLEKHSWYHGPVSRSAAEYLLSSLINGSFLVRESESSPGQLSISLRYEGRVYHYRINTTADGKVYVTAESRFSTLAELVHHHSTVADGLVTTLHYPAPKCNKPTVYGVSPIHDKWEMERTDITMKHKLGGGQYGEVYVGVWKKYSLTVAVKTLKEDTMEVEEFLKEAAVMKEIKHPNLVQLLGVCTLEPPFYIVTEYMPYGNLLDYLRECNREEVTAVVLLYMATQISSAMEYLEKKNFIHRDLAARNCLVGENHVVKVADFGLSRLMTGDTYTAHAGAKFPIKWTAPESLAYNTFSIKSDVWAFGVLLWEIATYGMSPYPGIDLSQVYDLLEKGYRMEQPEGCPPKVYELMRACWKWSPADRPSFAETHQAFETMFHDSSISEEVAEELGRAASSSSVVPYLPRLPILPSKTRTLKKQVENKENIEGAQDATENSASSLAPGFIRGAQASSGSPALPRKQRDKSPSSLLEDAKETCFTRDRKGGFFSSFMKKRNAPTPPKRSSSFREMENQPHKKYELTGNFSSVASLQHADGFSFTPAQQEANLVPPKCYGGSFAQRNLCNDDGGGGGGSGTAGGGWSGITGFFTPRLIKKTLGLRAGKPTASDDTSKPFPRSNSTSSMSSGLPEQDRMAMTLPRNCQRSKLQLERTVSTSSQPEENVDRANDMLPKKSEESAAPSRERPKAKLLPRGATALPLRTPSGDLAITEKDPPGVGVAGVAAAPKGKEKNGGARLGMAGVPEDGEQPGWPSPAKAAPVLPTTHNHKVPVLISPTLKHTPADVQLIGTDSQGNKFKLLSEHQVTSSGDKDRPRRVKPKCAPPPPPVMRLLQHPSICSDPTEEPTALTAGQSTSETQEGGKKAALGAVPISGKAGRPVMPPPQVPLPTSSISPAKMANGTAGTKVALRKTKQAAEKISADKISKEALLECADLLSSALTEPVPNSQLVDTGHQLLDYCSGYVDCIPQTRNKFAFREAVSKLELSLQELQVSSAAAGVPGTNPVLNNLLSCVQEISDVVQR

Row | Sequence | % activity [1] [%] | % activity [2] [%] | % activity [3] [%] | % activity [4] [%] | % activity [5] [%] | % activity [6] [%] | % activity [7] [%] | % activity [8] [%] | % activity [9] [%] | % activity [10] [%] | % activity [11] [%] | % activity [12] [%] | % activity [13] [%]
1 | FAKLAARLYRKALARQLGVAA [MMI-0300] | 72 | 101 | 5 | 48 | 32 | 110 | 57 | 82 | 68 | 132 | 66 | 90 | 5
2 | HRRIKAWLKKIKALARQLGVAA [MMI-0500] | 22 | 51 | 9 | 18 | 8 | 125 | 30 | 3 | 7 | 96 | 40 | 80 | 12
3 | KAFAKLAARLYRKALARQLGVAA [MMI-0400] | 84 | 89 | 5 | 44 | 28 |  | 67 | 75 | 46 | 129 | 68 | 96 | 8
4 | YARAAARQARAKALNRQLGVA [MMI-0200] | 82 | 99 | 35 | 98 | 50 | 100 | 110 | 100 | 97 | 108 |  | 93 | 7
